How the values were obtained:
[1] = molecular target: HMGN3 (Homo sapiens) (UniProt Q15651); test: MST; details: 50 nM labelled protein, 0.61 nM-20 uM oligo, 140 mM potassium phosphate pH 7.2 (6.7 for i-motif N1-3; CTCF oligo CD at pH 6.7), 10 mM NaCl in oligo …
[2] = molecular target: T1, CTCF (Mus musculus) (UniProt Q61164); test: MST; details: 50 nM labelled protein, 0.61 nM-20 uM oligo, 140 mM potassium phosphate pH 7.2 (6.7 for i-motif N1-3; CTCF oligo CD at pH 6.7), 10 mM NaCl in oligo …
T1 sequence: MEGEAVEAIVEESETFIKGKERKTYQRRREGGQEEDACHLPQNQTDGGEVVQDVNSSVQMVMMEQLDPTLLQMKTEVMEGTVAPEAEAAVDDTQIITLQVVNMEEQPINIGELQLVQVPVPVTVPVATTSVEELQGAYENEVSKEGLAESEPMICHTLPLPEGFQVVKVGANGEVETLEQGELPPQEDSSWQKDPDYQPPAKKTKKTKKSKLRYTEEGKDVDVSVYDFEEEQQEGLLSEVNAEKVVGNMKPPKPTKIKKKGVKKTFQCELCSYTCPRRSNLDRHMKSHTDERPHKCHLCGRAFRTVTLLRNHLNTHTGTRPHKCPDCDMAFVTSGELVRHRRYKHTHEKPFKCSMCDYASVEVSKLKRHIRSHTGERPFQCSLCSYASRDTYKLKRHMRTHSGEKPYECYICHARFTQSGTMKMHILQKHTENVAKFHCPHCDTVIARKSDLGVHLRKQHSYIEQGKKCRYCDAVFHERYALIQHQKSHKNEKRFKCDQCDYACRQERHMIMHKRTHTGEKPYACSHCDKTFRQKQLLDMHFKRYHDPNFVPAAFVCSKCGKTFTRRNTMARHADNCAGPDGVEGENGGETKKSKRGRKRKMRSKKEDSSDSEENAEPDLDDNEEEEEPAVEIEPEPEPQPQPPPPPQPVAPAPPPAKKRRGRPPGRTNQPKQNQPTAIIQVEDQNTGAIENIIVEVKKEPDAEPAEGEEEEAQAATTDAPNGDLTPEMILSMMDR

Sequence of HMGN3 (Homo sapiens) (Q15651 whole entry): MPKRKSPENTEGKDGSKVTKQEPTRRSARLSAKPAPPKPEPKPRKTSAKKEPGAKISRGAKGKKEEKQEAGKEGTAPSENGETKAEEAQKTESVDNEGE

| Substance | Kd [1] | Kd [2] |
| --- | --- | --- |
| AAGGAAAAGAAAAAA (double strand) [N3-2/N3C-2] | > 20000 nM | – |
| GGGGACGAAGGGGGCGCGGTGCCTCCTGG [N3-M7] | 150 nM | – |
| CAATCGGATCGAATTCGATCCGATTG [hair (ds26)] | > 20000 nM | – |
| GGGGGGCGGGGGGCGGGGGGGGGGG [BDN-G4] | – | 120 nM |
| AAAAAAAAAAAAAAAAAAAA [A20] | > 20000 nM | – |
| control CTCF duplex | – | 80 nM |
| GGGGCCAGTGGACGCGGGGAGCCTGCGGG [N3-M6] | > 10000 nM | – |
| TTTTCTTCTTCTTTT (double strand) [N3-1/N3C-1] | > 20000 nM | – |
| GGAGCAGGTGGGGAGCAGGCCGGAAGAGG [N3-M5] | > 20000 nM | – |
| TTTTTTTTTTTTTTTTTTTT [T20] | > 20000 nM | – |
| GGGGGTGGGGGGTGGGGGGAGGGGGG [SHA-G4] | – | 70 nM |
